# T1: NgR (Homo sapiens, UniProt Q9BZR6)
# T1 construct: expressed in transfected cells; host or cells: COS-7
# T1 sequence (Q9BZR6 27-447): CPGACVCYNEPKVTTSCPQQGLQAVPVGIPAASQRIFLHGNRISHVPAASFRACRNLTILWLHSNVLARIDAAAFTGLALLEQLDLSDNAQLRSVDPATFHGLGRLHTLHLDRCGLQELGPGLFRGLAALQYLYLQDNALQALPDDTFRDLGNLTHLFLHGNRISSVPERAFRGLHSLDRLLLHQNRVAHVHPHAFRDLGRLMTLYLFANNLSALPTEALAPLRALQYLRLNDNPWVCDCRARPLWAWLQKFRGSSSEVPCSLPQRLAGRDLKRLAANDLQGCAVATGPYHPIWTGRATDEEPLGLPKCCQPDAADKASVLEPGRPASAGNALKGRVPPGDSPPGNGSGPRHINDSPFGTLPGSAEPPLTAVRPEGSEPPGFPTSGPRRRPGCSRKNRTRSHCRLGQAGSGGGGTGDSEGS
# B1: B4C: fusion protein of GST and B4C fragment (carboxyl terminal 75 aa) of Amino-Nogo (protein)
# chain: LLPPDVSALATQAEIESIVKPKVLVKEAEKKLPSDTEKEDRSPSAIFSAELSKTSVVDLLYWRDIKKTG
# modifications: left off: large carriers
# notes: fusion protein of GST and B4C fragment (carboxyl terminal 75 aa) of Amino-Nogo
# B2: a.a. 950-1018 (AmNg B4C): AP fusion protein of Amino-Nogo fragment B4C, aa 950-1018 (protein)
# chain: B1 chain
# modifications: left off: large carriers
# Key:
# COS-7 cells = test: Fibroblast spreading assay on dried GST fusion protein; assay type: cell-based; conditions: GST fusion protein presented as dried substrate
# Protocol: FIG. 2A. Effects of Amino-Nogo fragments on fibroblast spreading and neurite outgrowth. Different effects of Amino-Nogo fragments on fibroblast spreading. COS-7 cells were allowed to attach and spread on slides with spots coated with 50 ng of dried GST fusion protein as indicated and stained for F-actin. GST-A: fusion protein of GST and A fragment (FIG. 1) of Amino-Nogo. GST-A, GST-B, GST-Δ20, GST-B4 and GST-B4C: fusion protein of GST and A, B, Δ20, B4 or B4C fragment (FIG. 1) of Amino-Nogo, respectively.
# FIG. 2B. COS-7 cell area for experiments as in (A) was measured and plotted.
# FIG. 2C. COS-7 cells were allowed to attach and spread on 96 well dishes coated with dried GST fusion proteins as indicated. Number of attached cells were counted and plotted as a function of the amount of various proteins dried per well in a 96 well dish.
# It has been recognized that the Amino-Nogo-A protein inhibits non-neuronal cell spreading and axonal outgrowth when the protein is substrate bound (Chen, M. S., et al., Nature 403:434-439 (2000); Fournier, A. E., et al., Nature 409:341-346 (2001)). […] The later domain has been termed Δ20. To determine whether the NgR-interacting aa of Amino-Nogo-A described in Example 1 regulate cell spreading and axonal outgrowth, various fragments were expressed as GST fusion proteins and purified from E. coli. To generate GST fusion proteins, amino Nogo fragments were cloned in pGEX2T (Amersham Pharmacia). Native and soluble GST fusion proteins were expressed and purified as described (GrandPre, T., et al., Nature 403:439-444 (2000)). COS-7 binding assays were done as described (Fournier, A. E., et al., Nature 409:341-346 (2001)). Bound AP to COS-7 cells was measured using NIH image software. Fibroblast spreading and cDRG outgrowth assay were done as described (Fournier, A. E., et al., Nature 409:341-346 (2001)) with some modifications. Briefly, 50 μl of purified GST fusion protein or peptides diluted in PBS was pipetted into polylysine precoated 96 well plates (Becton Dickson Biocoat plates) and dried overnight at room temperature. […]
# E13 chick DRG neurons = test: cDRG neurite outgrowth assay; assay type: cell-based; conditions: substrate coated with GST fusion protein
# Protocol: FIG. 2D. Differential effects of Amino-Nogo fragments on neurite outgrowth. Dissociated neurons from E13 chick DRGs were plated on 96 well dishes coated with lpmol protein per well and stained for neurofilament localization.
# FIG. 2E. Neurite length per neuron were measured and plotted as percentage of PBS control with increasing concentration of dried protein for experiment described in […].
# FIG. 6C. B24/32 peptide inhibits neurite outgrowth. Dissociated neurons from E13 chick DRG were plated onto 96 well dishes coated with 500 pmol of dried peptides as indicated and stained for neurofilament localization.
# FIG. 6D. Neurite length per neuron was measured and plotted as percentage of PBS control for experiments as in (C).
# (§1) It has been recognized that the Amino-Nogo-A protein inhibits non-neuronal cell spreading and axonal outgrowth when the protein is substrate bound (Chen, M. S., et al., Nature 403:434-439 (2000); Fournier, A. E., et al., Nature 409:341-346 (2001)). […] The later domain has been termed Δ20. To determine whether the NgR-interacting aa of Amino-Nogo-A described in Example 1 regulate cell spreading and axonal outgrowth, various fragments were expressed as GST fusion proteins and purified from E. coli. To generate GST fusion proteins, amino Nogo fragments were cloned in pGEX2T (Amersham Pharmacia). Native and soluble GST fusion proteins were expressed and purified as described (GrandPre, T., et al., Nature 403:439-444 (2000)). COS-7 binding assays were done as described (Fournier, A. E., et al., Nature 409:341-346 (2001)). Bound AP to COS-7 cells was measured using NIH image software. Fibroblast spreading and cDRG outgrowth assay were done as described (Fournier, A. E., et al., Nature 409:341-346 (2001)) with some modifications. Briefly, 50 μl of purified GST fusion protein or peptides diluted in PBS was pipetted into polylysine precoated 96 well plates (Becton Dickson Biocoat plates) and dried overnight at room temperature. For fibroblast spreading assay, subconfluent COS-7 cells were then plated for 1 hour in serum containing medium before fixation and staining with rho damine-phalloidin.
# The same GST-Amino-Nogo proteins were tested for their ability to reduce neurite outgrowth from chick E13 DRG neurons. For cDRG outgrowth assay, dissociated E13 cDRG neurons were plated for 6 hours before fixation. […] Cell area, number of attached cells and neurite length were measured using the Imageexpress machine and software (Axon Instrument).
# We reasoned that fusing the 24 aa segment of Amino-Nogo-A to NEP32 antagonist peptide might create a high affinity antagonist with a potency similar to the binding of AP-B4C-66 to NgR. […] Cell area, number of attached cells and neurite length were measured using the linageexpress machine and software (Axon Instrument).
# NgR = biological target: T1, NgR; test: AP fusion protein binding to NgR expressing COS-7 cells; conditions: AP fused Amino-Nogo fragments in conditioned media on NgR expressing COS-7 cells; 'No binding at' cells continue on the next line: AmNg A 150 nM; a.a. 1000-1018, a.a. 1005-1018, Amino of NgC 25 nM; a.a. 950-1004 50 nM; Amino of NgB 100 nM
# Description: Several alkaline phosphatase (AP) fusion proteins containing various Nogo-A segments derived from regions between the amino terminus and the first hydrophobic segment were examined to identify the mechanism of Amino-Nogo-A action. To generate additional AP fusion proteins, human amino Nogo fragments were amplified and ligated to the pcAP6 vector digested with restriction enzymes EcoRI and XhoI as described (Fournier, A. E., et al., Nature 409:341-346 (2001)). Plasmids were then transfected into HEK293T cells and conditioned media were collected after 7 days. None of these fragments bind with high affinity to non-transfected COS-7 cells. […] This binding is saturable with a Kd indistinguishable from that for AP-Nogo-66 association with NgR (Table I). To better define the region responsible for Amino-Nogo interaction with NgR, a range of truncation mutants of Amino-Nogo were examined as AP fusion proteins. […] In fact, the NgR-interacting segment of Amino-Nogo is fully accounted for in the extreme carboxyl 24 amino acids (aa 995-1018, Amino-Nogo-A-24) (Table I and FIG. 1D). […] We named this domain (aa 995-1013) as Amino-Nogo-A-19.
# Binding Kds for AP fused Amino-Nogo fragments were measured by applying conditioned media containing AP fusion protein to NgR expressing COS-7 cells. Bound AP was stained and measured.
# as §1
# NgR mutants = test: AP fusion protein binding to COS-7 cells expressing NgR deletion mutants; conditions: COS-7 cells expressing NgR mutants; FIG. 3A
# Description: FIG. 3A. Binding of Amino-Nogo to NgR requires LRR repeats. Binding of AP or AP fused Nogo fragments to COS-7 cells expressing NgR mutants as indicated. AP-B and AP-B4: AP fusion protein of B or B4 fragment of Amino-Nogo. Surface expression of NgR mutants was detected using anti-Myc antibodies.
# Similarly, the cysteine rich LRR-NT and LRR-CT capping domains are essential for Amino-Nogo-B4C binding. […] NgR is part of gene family that includes NgR2 and NgR3. […] By these measures, the NgR requirements for Nogo-66 and Amino-Nogo-B4C binding are indistinguishable.
Molecule,COS-7 cell attachment and spreading (COS-7 cells),neurite outgrowth from chick E13 DRG neurons (E13 chick DRG neurons),Kd (NgR) [nM],binding to NgR with deletion of the CT domain (NgR mutants),binding to NgR with deletions of any two LRRs (NgR mutants),requirement of LRR-NT and LRR-CT capping domains of NgR for binding (NgR mutants)
B1,do not alter COS-7 morphology,not inhibitory for axonal growth,–,–,–,–
B2,–,–,3.51 ± 3.36,did not alter,eliminated binding,essential
